To fix the notation:
B1: ubiquitin-specific peptidase 17 (USP17), wild type [not stated] / TNFR-associated factor 2 (TRAF2) [not stated] (parent complex)
chain 1: MEDDSLYLGGEWQFNHFSKLTSSRPDAAFAEIQRTSLPEKSPLSSEARVDLCDDLAPVARQLAPRKKLPLSSRRPAAVGAGLQNMGNTCYENASLQCLTYTPPLANYMLSREHSQTCQRPKCCMLCTMQAHITWALHSPGHVIQPSQALAAGFHRGKQEDAHEFLMFTVDAMKKACLPGHKQVDHHSKDTTLIHQIFGGCWRSQIKCLHCHGISDTFDPYLDIALDIQAAQSVKQALEQLVKPEELNGENAYHCGLCLQRAPASKTLTLHTSAKVLILVLKRFSDVTGNKLAKNVQYPECLDMQPYMSQQNTGPLVYVLYAVLVHAGWSCHDGHYFSYVKAQEGQWYKMDDAKVTACSITSVLSQQAYVLFYIQKSEWERHSESVSRGREPRALGAEDTDRRATQGELKRDHPCLQAPELDERLVERATQESTLDHWKFPQEQNKTKPEFNVRKVEGTLPPNVLVIHQSKYKCGMKNHHPEQQSSLLNLSSTTRTDQESVNTGTLASLQGRTRRSKGKNKHSKRALLVCQ
chain 2: MAAASVTPPGSLELLQPGFSKTLLGTKLEAKYLCSACRNVLRRPFQAQCGHRYCSFCLASILSSGPQNCAACVHEGIYEEGISILESSSAFPDNAARREVESLPAVCPSDGCTWKGTLKEYESCHEGRCPLMLTECPACKGLVRLGEKERHLEHECPERSLSCRHCRAPCCGADVKAHHEVCPKFPLTCDGCGKKKIPREKFQDHVKTCGKCRVPCRFHAIGCLETVEGEKQQEHEVQWLREHLAMLLSSVLEAKPLLGDQSHAGSELLQRCESLEKKTATFENIVCVLNREVERVAMTAEACSRQHRLDQDKIEALSSKVQQLERSIGLKDLAMADLEQKVLEMEASTYDGVFIWKISDFARKRQEAVAGRIPAIFSPAFYTSRYGYKMCLRIYLNGDGTGRGTHLSLFFVVMKGPNDALLRWPFNQKVTLMLLDQNNREHVIDAFRPDVTSSSFQRPVNDMNIASGCPLFCPVSKMEAKNSYVRDDAIFIKAIVDLTGL
B2: ubiquitin-specific peptidase 17 (USP17), wild type [not stated] / TNFR-associated factor 3 (TRAF3) [not stated] (parent complex)
chain 1: B1 chain 1
chain 2: MESSKKMDSPGALQTNPPLKLHTDRSAGTPVFVPEQGGYKEKFVKTVEDKYKCEKCHLVLCSPKQTECGHRFCESCMAALLSSSSPKCTACQESIVKDKVFKDNCCKREILALQIYCRNESRGCAEQLMLGHLLVHLKNDCHFEELPCVRPDCKEKVLRKDLRDHVEKACKYREATCSHCKSQVPMIALQKHEDTDCPCVVVSCPHKCSVQTLLRSELSAHLSECVNAPSTCSFKRYGCVFQGTNQQIKAHEASSAVQHVNLLKEWSNSLEKKVSLLQNESVEKNKSIQSLHNQICSFEIEIERQKEMLRNNESKILHLQRVIDSQAEKLKELDKEIRPFRQNWEEADSMKSSVESLQNRVTELESVDKSAGQVARNTGLLESQLSRHDQMLSVHDIRLADMDLRFQVLETASYNGVLIWKIRDYKRRKQEAVMGKTLSLYSQPFYTGYFGYKMCARVYLNGDGMGKGTHLSLFFVIMRGEYDALLPWPFKQKVTLMLMDQGSSRRHLGDAFKPDPNSSSFKKPTGEMNIASGCPVFVAQTVLENGTYIKDDTIFIKVIVDTSDLPDP

Variants of B1 are the subject of the first assay. The assay can be described thus: co-immunoprecipitation (IP: Myc, IB: Flag) with band quantification; coexpressed in HEK293 cells; parent: 100; read off a plot.
Take chain 1 P480L: the percent of parent is ~68%. In the case of chain 1 A428V, the percent of parent was ~79%. On the same count and under the same terms, under chain 1 E431A stands ~29%; under chain 1 Q430A, ~33%. As for chain 1 S484L, the percent of parent is ~40%. Still for that read-out and setting: for chain 1 Q482R the value was ~37%.

In another assay the parent is B2. The description is as above.
Turning to chain 1 Q482R, the percent of parent was ~30%. Take chain 1 S484L: the percent of parent was ~38%. For chain 1 P480L, the percent of parent is ~68%.

The record behind these values is article PMC6283856 (2018).
